Data: patent US20220119543A1 (INATHERYS, published 2022)

What was measured:
[1] = target: T1, Recombinant human TfR (R&D Systems, Catalog number 2474-TR) (human, UniProt P02786 89-760); assay: ELISA, recombinant human TfR coated on plate
T1 construct: Bought recombinant protein; also called Histidin-tagged human TfR; TfR-His; not shown: histidine tag
Method: For the determination of the specificity of the antibody an ELISA test may be applied using the following protocol. Recombinant human TfR (as obtained from R&D Systems, Catalog number 2474-TR) are directly coated on a 96 well plate overnight and washed twice before incubation with several dilutions (10) of the antibody (murine and humanized mAb) (dilution may start at the concentration of 50 μg/ml through 0,001 ug/ml) and incubate 1 hour at room temperature. After two washes a secondary antibody Goat-anti Human IgG is incubated Incubate 1 hour at room temperature in the dark, washed twice and incubated with the TMB solution for 10 minutes before reading the absorbance at 450 nm.

[2] = target: T1, Recombinant human TfR (R&D Systems, …); assay: SPR (Biacore), His-tagged human TfR captured on anti-Penta-His CM5 chip, antibody injected
Method: Histidin-tagged human TfR (as obtained from R&D Systems, Catalog number 2474-TR) was bound after passage on covalently immobilized Penta-His mAb CM5 sensor chip. Ten different concentrations of antibody (1 to 500 nM) were injected across the anti-His/TfR-His surface for 4 minutes and the dissociation complexes was followed for 5 minutes. Both association and dissociation profiles are analyzed with a nonlinear square algorithm implemented in the BIAevalution software using single-exponential functions of time.

T1 sequence (P02786 89-760 limits assumed): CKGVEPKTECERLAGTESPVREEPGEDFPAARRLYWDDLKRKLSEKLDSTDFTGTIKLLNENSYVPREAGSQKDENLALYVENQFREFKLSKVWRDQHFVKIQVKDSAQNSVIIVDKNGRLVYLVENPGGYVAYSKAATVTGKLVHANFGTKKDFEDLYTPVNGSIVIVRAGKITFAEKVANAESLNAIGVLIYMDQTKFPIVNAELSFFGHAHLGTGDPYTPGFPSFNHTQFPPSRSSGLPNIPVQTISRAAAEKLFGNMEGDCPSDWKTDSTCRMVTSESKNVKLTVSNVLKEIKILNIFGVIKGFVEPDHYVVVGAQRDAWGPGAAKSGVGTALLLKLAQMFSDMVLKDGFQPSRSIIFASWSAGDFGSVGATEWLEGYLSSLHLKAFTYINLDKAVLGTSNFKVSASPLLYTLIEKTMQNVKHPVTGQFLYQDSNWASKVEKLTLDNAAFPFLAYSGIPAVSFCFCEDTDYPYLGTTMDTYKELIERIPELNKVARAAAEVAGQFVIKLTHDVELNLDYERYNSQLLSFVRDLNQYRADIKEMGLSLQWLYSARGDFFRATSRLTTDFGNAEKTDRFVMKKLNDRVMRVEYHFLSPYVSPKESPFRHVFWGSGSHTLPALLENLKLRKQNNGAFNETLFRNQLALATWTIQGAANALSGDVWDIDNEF

B1: mAb1 (antibody, human IgG4 S228P, kappa, V domains shown)
VH: QVQLVQSGPELKKPGASVKVSCKASGYTFTNQGMNWVKQAPGKGLKWMGWINTYTGEPINADDFKGRFVISLDTSASTAYLQISSLKAEDTAVYFCVREGWDSMDYWGQGTSVTVSS
VL: QIVLTQSPATLSVSPGERATLSCSASSSVNYMHWFQQKPGQSPRLLIYSTSNRATGIPARFSGSGSGTSYTLTISSLEPEDFAVYYCQQRSSYPLTFGQGTKLEIKR
notes: Humanized A24, human IgG4 isotype; also called VH4/VL4 with IgG4 Fc region
EC50 [1]: 0.024 µg/mL | Kd [2]: 315 pM
